Data reported in patent US20170145104A1 (Bristol-Myers Squibb, published 2017).
Like-named read-outs stand apart in the source and are kept apart here.

T1: human GITR, membrane bound (on activated human T cells and on 3A9-hGITR cells) (human, UniProt Q9Y5U5 26-241)
T1 construct: whole, on cells; the cell is named under assay; also called huGITR; TNFRSF18
T1 sequence (looked up): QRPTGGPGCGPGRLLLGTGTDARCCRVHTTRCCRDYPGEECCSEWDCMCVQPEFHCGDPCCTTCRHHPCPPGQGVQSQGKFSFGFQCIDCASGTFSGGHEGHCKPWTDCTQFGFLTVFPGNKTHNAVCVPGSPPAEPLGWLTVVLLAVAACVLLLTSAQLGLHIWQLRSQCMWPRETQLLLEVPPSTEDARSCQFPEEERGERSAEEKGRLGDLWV

B1: Non mutated 28F3 (control of the VH CDR3 mutant panel) (antibody, V domains shown)
VH: QVQLVESGGGVVQPGRSLRLSCAASGFTFSSYGMHWVRQAPGKGLEWVAVIWYEGSNKYYADSVKGRFTISRDNSKNTLYLQMNSLRAEDTAVYYCARGGSMVRGDYYYGMDVWGQGTTVTVSS
VL: AIQLTQSPSSLSASVGDRVTITCRASQGISSALAWYQQKPGKAPKLLIYDASSLESGVPSRFSGSGSGTDFTLTISSLQPEDFATYYCQQFNSYPYTFGQGTKLEIK
notes: also called H6
B2: 28F3 VH CDR3 mutant M98S, M111L (antibody, V domains shown)
VH: QVQLVESGGGVVQPGRSLRLSCAASGFTFSSYGMHWVRQAPGKGLEWVAVIWYEGSNKYYADSVKGRFTISRDNSKNTLYLQMNSLRAEDTAVYYCARGGSSVRGDYYYGLDVWGQGTTVTVSS
VL: AIQLTQSPSSLSASVGDRVTITCRASQGISSALAWYQQKPGKAPKLLIYDASSLESGVPSRFSGSGSGTDFTLTISSLQPEDFATYYCQQFNSYPYTFGQGTKLEIK
notes: also called F1
B3: 28F3 VH CDR3 mutant M98Y, M111F (antibody, V domains shown)
VH: QVQLVESGGGVVQPGRSLRLSCAASGFTFSSYGMHWVRQAPGKGLEWVAVIWYEGSNKYYADSVKGRFTISRDNSKNTLYLQMNSLRAEDTAVYYCARGGSYVRGDYYYGFDVWGQGTTVTVSS
VL: AIQLTQSPSSLSASVGDRVTITCRASQGISSALAWYQQKPGKAPKLLIYDASSLESGVPSRFSGSGSGTDFTLTISSLQPEDFATYYCQQFNSYPYTFGQGTKLEIK
notes: also called H2
B4: 28F3 VH CDR3 mutant M98V, M111L (antibody, V domains shown)
VH: QVQLVESGGGVVQPGRSLRLSCAASGFTFSSYGMHWVRQAPGKGLEWVAVIWYEGSNKYYADSVKGRFTISRDNSKNTLYLQMNSLRAEDTAVYYCARGGSVVRGDYYYGLDVWGQGTTVTVSS
VL: AIQLTQSPSSLSASVGDRVTITCRASQGISSALAWYQQKPGKAPKLLIYDASSLESGVPSRFSGSGSGTDFTLTISSLQPEDFATYYCQQFNSYPYTFGQGTKLEIK
notes: also called A1
B5: 28F3 VH CDR3 mutant M98V, M111F (antibody, V domains shown)
VH: QVQLVESGGGVVQPGRSLRLSCAASGFTFSSYGMHWVRQAPGKGLEWVAVIWYEGSNKYYADSVKGRFTISRDNSKNTLYLQMNSLRAEDTAVYYCARGGSVVRGDYYYGFDVWGQGTTVTVSS
VL: AIQLTQSPSSLSASVGDRVTITCRASQGISSALAWYQQKPGKAPKLLIYDASSLESGVPSRFSGSGSGTDFTLTISSLQPEDFATYYCQQFNSYPYTFGQGTKLEIK
notes: also called A2
B6: 28F3 VH CDR3 mutant M98V, D106E, M111L (antibody, V domains shown)
VH: QVQLVESGGGVVQPGRSLRLSCAASGFTFSSYGMHWVRQAPGKGLEWVAVIWYEGSNKYYADSVKGRFTISRDNSKNTLYLQMNSLRAEDTAVYYCARGGSVVRGEYYYGLDVWGQGTTVTVSS
VL: AIQLTQSPSSLSASVGDRVTITCRASQGISSALAWYQQKPGKAPKLLIYDASSLESGVPSRFSGSGSGTDFTLTISSLQPEDFATYYCQQFNSYPYTFGQGTKLEIK
notes: also called A3
B7: 28F3 VH CDR3 mutant M98Y, M111L (antibody, V domains shown)
VH: QVQLVESGGGVVQPGRSLRLSCAASGFTFSSYGMHWVRQAPGKGLEWVAVIWYEGSNKYYADSVKGRFTISRDNSKNTLYLQMNSLRAEDTAVYYCARGGSYVRGDYYYGLDVWGQGTTVTVSS
VL: AIQLTQSPSSLSASVGDRVTITCRASQGISSALAWYQQKPGKAPKLLIYDASSLESGVPSRFSGSGSGTDFTLTISSLQPEDFATYYCQQFNSYPYTFGQGTKLEIK
notes: also called H1
B8: 28F3 VH CDR3 mutant M98Y, D106E, M111L (antibody, V domains shown)
VH: QVQLVESGGGVVQPGRSLRLSCAASGFTFSSYGMHWVRQAPGKGLEWVAVIWYEGSNKYYADSVKGRFTISRDNSKNTLYLQMNSLRAEDTAVYYCARGGSYVRGEYYYGLDVWGQGTTVTVSS
VL: AIQLTQSPSSLSASVGDRVTITCRASQGISSALAWYQQKPGKAPKLLIYDASSLESGVPSRFSGSGSGTDFTLTISSLQPEDFATYYCQQFNSYPYTFGQGTKLEIK
notes: also called H3

Tests used:
[1] = target: T1, human GITR, membrane bound (on …); assay: FACS binding to 3A9-hGITR transfectant, Geo-MFI (PE); EC50 table beside the curves; unit from the axis
[2] = target: T1, human GITR, membrane bound (on …); assay: as above; remark: listed apart in the source

Binder	EC50 [1] [nM]	EC50 [2] [nM]
B1	0.334	
B2		60.3
B3		246
B4		3.53
B5		3.7
B6		2.87
B7		620
B8		183
